The data set is described as follows: label from the status in PepcDB records.
Consider “MFANWLLVSVSIGYIGLLFLIAHLGGKYRNKLEAKQQTIIYALSLGVYCTSWGFLGTTAQAANHSFTFLSVYLAPIVLFVFAWPFIQRIIKTSLKLKITSIADLLSARFGKSQTLAIIITLVALIGTMPYIALQLKAIVNSYQILQETQDLPIWQIGLVVSIILAVFTIIFGIRTIDITERHPGVMIAIAFESLVKLIAFLLVGLFVSFIIYDSPMDIWELSKDQFDIEKQFEFSNLFALFGMLIIVMSAFLCLPRQFQVMFVEIKDKKTSGMARWVLPVYLLIFGFFAAVLGLAGNLNYGSSLAADAYVLFLPALDGQVWLSLFAFLGAVSAASSMVIVSTIALSTMLSNEIVFPVMFNFSRQKQQDFNHFQLQLLFIRKTLVLLVIFLSYGLLLVSPPDALSSLGEVAFGAIAQIGPALFVAFYWRRATLAGVLAGIICGFTIWTVFNLIPQLGIYAHPLENTDLPKTTVITLIGLLINVIALWLVSLGTRQSIREQMQSEFFYTDRKKIKWSLPSQPKVDIVELELLVARFIGEEKATKCFEKFHSMNQTKDNKKFNEAILFHAENTLARVLGSASAKLVTSLAISSRGMAFDQVAKLVEDNSTQQLEFSRTVLQSAIENVSEGISVIDSELKLVAWNKQYLDIFSYPEAFIYIGCPISQLIHFNLSQQGYFAKDIDLRVKKRIQYIMEGSRHNTEYKLKNGKNIRIEGSPIPGGGFVMIFSDITQYRQTEEVLKEENTDLESRVQFRTAELEQANKELALANHELIQAQTKAEQAHVKKSQYLKACSHDLLQPLSAARLFSSAISLSPRVSNEEREQIKKIDNSLEIANSLLLDLNEIARIESGNITPTIEPIEIKELFTMLANEFNALTDEYHVEFHCKMSKTYVASDITLLARIVQNFLSNAFRYAHRCDKKNQSKVLLGCRRQGNEISIQVFDNGPGIPIDKQQQVFDQFTQLNNSNVMGPKGLGLGLNIAQSLANILEHKIDLKSKPGHGCLFSVNAPMTLAPAAKEQTLPPASMSLHGVGVLCIDNEPAILDGMSKLLSAWQCQVFTAVDAQQARELYAKHEDEIDILLVDYQLDGCQDDNTIMATDMLISERNDSSCSIDPVNGIGLIKQLRAMSPYALPAILITATTGENLMALTKQHNIGYLRKIIRPLALRALMSSLLTEELAKNYSQNNT”, for which the protein production entry is on record as “failed”.

As for “MFAVPYHQHLWRIKLALIAQNHLQLIIEVGIILYAAMVFILNLAPMSLSMVLFICIVLGIGFNIIFGLDVVALFMSFGQSEFTHPFGPIALLVTVSSLAALAIMEESGVDVRGLRGFVYLLMAGITLFGGLMHRSFLLLWLLGLFMGLFIISKSMRQRSLITVKRVAGFALIAVAGFGGLELISRVLGMTVLSPLLRIERLETFSLPSMKLVIKNTTLLGHNPMSSYWGELSSGFADGYISLPLQLILFFGLPFPVFYGILVNKKDVIDYMVPGVFGWAYDFGYITMFFLLIWCVGIIIMGLRMLSIYRERRENGSRSYLGREVLLTGALAAFMSQAIIGLFVINRTINGTALLTFIFLSSLIFANSVGLKE”, the protein production entry was “failed”. Consider “MFDFSIVTNWIHEMLLSVMPEGWAIFIECIAVGVCIVALYAILAIVLIYMERKVCGFFQCRLGPNRVGKWGSIQVICDVLKMLTKEIFTPKDADRFLYNLAPFMVIIASFLTFACIPFNKGAEILNFNVGVFFLLAASSIGVVGILLAGWGSNNKFSLIGAMRSGAQIISYELSVGMSIMTMVVLMGTMQFSEIVEGQADGWFIFKGHIPAVIAFIIYLIAGNAECNRGPFDLPEAESELTAGYHTEYSGMHFGFFYLAEYLNLFIVASVAATIFLGGWMPLHIIGLDGFNAVMDYIPGFIWFFAKAFFVVFLLMWIKWTFPRLRIDQILNLEWKYLVPISMVNLLLMACCVAFGFHF”, for which the protein production result is “failed”. Regarding “MFDKIHYYYFNANYEKCLNLSEQFLKESPKFALEFATLSSYKLSLFQKALYYAQELFSLNPTSFNGLMLAKSYIENLRLDEALNLLQTLLTRKDDLEDELKLELAFIYKLSNKLEESEQIFKELLSKDMYNLNLWKNYAEIYFKHDFTKALNAHEHLCHFMQDLIDKLQKGIIAEQTNLNLVKLEDRLHSKTKENLTISKIEDFLTHQILPQKAYLLFKLFRISDSLELFQSLQEANQHHAQFWQNYAKVLEFNSNYQEAYHAYKKCLSLDSHATYQFDLAYLLMRMGVDDNFEEGKKYYESRLFYAHNETFSTYHYNESLKAFNKFGVDAFKNKEVLVFCEQGFGDTIMYARCLEKLCKIASKVLFAPQSAMYEMFKNQIKFLNQNDDIFKNVKVLKNLPTNFDYAIPICSLPFFIDIKLDEILRLKTPILPQKKPHNQRKKLGIFYATPNAENSDLLRNVKFEFLFDVLKDLDYEIISFQMQLKEELPKVIEDRSKLIKNWNDTLNYLYDIDCMLSIDSAIAHLSLAMDIPTIVLLHPRFDWRWGKFENPKSYFWPKAKCFIIKEQEETKRNLQKLIKDILN”, the protein production result is recorded as “failed”. In the case of “MFDTKIAVILRDDLAVWQKLNVTAFLMSGIVAQTGEIIGEPYRDGAGNVYNPLSIQPIVVMATDQEALRKIHQRSLERDITTSLYIEEMFATGHDAANRQVFSHFSPDTAKVVGMALRADRKIVDKITKGAKLHA”, the protein production result is reported as “not failed”. To “MFEENEKEQLLYYERNKESEKCQKVWESIICKGLGYSKEEIRRDVERSRREKERLLSILYGSVFTGPKYLLYSKKWRGKTLNEIINEDREKNLNKNNFKNMDLDSTYFCELSFGYMDTAEENDDKNKKEITKQMEKKNDKVPNIRKGGNTNNSQNKRKTYHGEKNANTTNKDLDEFYSKLNYLEKRSYKNRYRNDNNNKKNNNNNNNNNNSNSNNNYYYYYSNGRSSYTNELSNEKNKYNEENSDEGNVIKYKYLPTGVFYSRVSKSFIANWIDDKTKKQVKIPYKISEYGIEKCMILAILSRNLRLSNLSNVLKYYDELTDSQKEQMLHAIRTTQKSEKLFEDIINRNGNKKNENNIINNYSNIHNDTSINNNNNNNNNNNNNIGNTIGTQHKNKNKQNANDQKNIPMKKKLIEKKKVKQSYVNEEKLPTGVYFYQGSYVANWWETNQKKQFKVPFKISEYGIARAKNLAIISRLIRSSSIPDINLILTQMENDHNLSDMDYTAISELAYKYIENMAKKE” belongs “failed”; to “MFEFILQLSLGILAVSTFLYVLRVIKGPSIPDRVVALDAIGINLIGITALVSILLNTTAYLEVILLIGILAFIGTVAFSKFLEKGEIIENDRSR”, “failed”; to “MFEGQPKGLYALALANTGERFGYYTMLAIFTLFLQAKFGYTAAETSTIFGCFLAAVYFIPFFGGILADKFGYGKMVTMGIVVMFIGYALLAIPTSDNSGKIMMFGALALIACGTGLFKGNLQVMVGNLYDAPEYSSKRDTAFSIFYMAINIGAMYAPTAATKVTNYMLGKAGLSYVPQIPSLAHQYLDGTITPANQATLESLQAAQNFTGDIATFCTTYIDKLSEAYNYGFGVACVSLIISMLIYVAFRSTFKHADYNSKQAKPANVVEEKLTPEQTKQRIVALLLVFAVVIFFWMAFHQNGLTLTFFARDYTAQEVTGLDRLGFNIVNLTFLLIVIYGLFSLFQGKTGKSKTIAGVVVMVALLCLGWSYTSMDPTINILPQIFQQFNPFFVIALTPVSLAVFGYLARKGKEPSAPRKIGIGMMIAVCGFLIMAIGSIGLPTPDALAASGIEKDALVSPNWLISTYLVLTFAELFLSPMGISFVSKVAPPKYKGMMMGGWFAATAIGNYLVAIIGYLWGGMQLWMVWSVLIVCCLLAALFIFSIMKKLEKVA”, “failed”.

Take “MFFLRTTKRMESYSQNSNKLDFQHEARILNSIWLITALGLVATAGLAWGAKYLEITATKYDSPQMYVAIGLLLLSMYGLSKDINKINTAIAGVIYLFLISLVAIVVASLAPVSAIIVVFSTAGSMFLISMLAGLLFKFDPGSHRFIIMMTLTGLALVIIVNATLMSERPIWVISCLMIVLWSGIISHGRNKLLELTGKSHSEELWSSVRCAFIGALTLYYYFIGFFGILAAIAITLVWQRHTRFFH”: the protein production entry is reported as “failed”. Turning to “MFGEQLLKNPLIEFCDSVCRGCGQVMFQNNTVTGLLFFAGIFYNSTTLGVCAVLGTAASTLTAQLLGVDKPLVRAGLFGFNGTLAGIALPFFFNYEPAMLGYVALNGAFTTIIMASLLNFLGKWGVPALTAPFVLATWLLMFGVYKLSLFHPGALIAPALPSVAGLADMGTVTGRTFMEGLFKGVGEVMFQDNIVTGVIFVVAILVNSRISALFAVIGSLVGLCTALIMHSPETPVRLGLYGFNSVLCGIAMGGIFFYLNIRTFLYALGCMVLGAIATGAFSVLLSPIGMPALTWPFIVVTWLFLFAGSMFRNIAQVPTEKAGTPEDNLRSLAIGSR”, the protein production entry is recorded as “not failed”.

In the case of “MFGGIENVKAAEPKVYQFDFGSGSMEPGYIGVRASDRYDRSKGYGFQTPENMRDVAASGAGVKSDAVEFLAYGTKSNNTFNVDLPNGLYEVKVTLGNTARASVAAEGVFQVINMTGDGAEDTFQIPVTDGQLNLLVTEGKAGTAFTLSALKIKKLSDQPVTNRTIYVGGDSTVCNYYPLNSSKQAGWGQMLPHYIDKHTFQVRNMASGGQIARGFRNDGQLEAILKYIKPGDYFMLQLGINDTNPKHKESEAEFKEVMRDMIRQVKAKGADVILSTPQGRATDFTSEGIHSSVNRWYRASILALAEEEKTYLIDLNVLSSAYFTSIGPERTLGLYMDGDTLHPNRAGADALARLAVQELKRQGIAGFLEHHHHHH”, the protein production result was “not failed”.

“MFHKALITFIVLWFFLNGLGAYDFKHCQAFFKKASLQKGGVALKELPKGVYLYYSKTYPKHAKVIKSDPFVGLYLLQSAPSEYVYTLRDLDKDALIRPMASIGDKEALETRLLVGQRGYERYAQISQKTQKNGVISNICYQMLGLGVGGNGFIETKFIKRFLNQQEPYYGDIGVRLEEHHKRLVVVQFDPFFPKNPFLKNDEILAINHQKIHSLAEFEWVVSNLKYQSLAKVEIKRNHKVKEVTLKVNKRYGGFLLKDTFLERYGIALDERFIITKIGAHLPKGLDFLKLGDRILWVNYKSVASNPKALREALSAPKIELLVLRKGFEFYIKVR”: the protein production entry is given as “failed”.

For “MFHYTVDVSTGMNETIERLEESLKQEGFGVLWQFSVTEKLQEKGLDFSTPMVILEVCNPQEAARVLNENLLVGYFLPCKLVVYQENGTTKIGMPKPTMLVGMMNDPALKEIAADIEKRLAACLDRCR”, the protein production result is recorded as “not failed”. Turning to “MFIGRNQELTALNKLYQEDSFQFAVIYGRRRIGKTSLINQFLKGKRAIYFTGLEENALENLARFSDAIHAYEDPSYLDGPNFASFEQAFKYLVHLSEKNDRLILVIDEFPYLAKAYPPISSMLQSYIDHYFKQNKLFLILCGSSMPFMEKQVLGYKSPLYGRRTAQFKLKPFSLHDAEEFFPQLNKEEVFELNAITGGIPLYLSLMSPKKSLRENIKDNFLTTSAMLYAEPMSLLNQELREPASYSSIISAIAAGASRQSEISTKTGIASGALSPYLDNLIDLGIVEKRLPVTELDKARSRKTIYAIKDGMFRFWYTFVGKRVSFIERGITEPILDYIIKQLPHFMGPEFEKLSQEYLWSKLFDPDLVPEPFVNLGNWWGPDPKEKKQVEMDIVGFDDQKLNGYFGECKWKNEPISADILETLIYRSILFPTPKKNYYLFSKTGFTDKCQQLAQQVDCHLITFDMM”, the protein production result is given as “failed”.

“MFIHPHTSLTFEQCQKARVSRDSRFDGRFYVAVKTTGIFCRPICPANLPKEENVEYFTDKAQALKAGYRPCLRCRPDSAPGSWAWKGVETTFQRAISLIDRGELHHHSVSELAERVGISDRYLRMLFEQYLGMSPKQYAQYQQLMFAKQLLHSSSMSVTEVGFAAGFNSTRRFNDAFQKFLKLTPSQVRRREFDGVSTNRIALSYRGELNWQHMLDFYRLRAIEGVERVSGESYQRNVCLDNSKAWFKAIKGEGNLELEFEIEEVAKLQNLVSGIRRMFDLDTDICTVEQHLDYVAPGLVSNRGIRIPGVWNAWEAGVRAVLGQQVSVKAAIGQLNLLVKTLSGDADKRFFPTPDAIANADVSFLRMPQSRKETLVRFAQFMQSNAETDPQQWLALKGIGPWTVSYAQLRGQSQPDCFLDKDLVVKKAMQRYPSLNTHTAAPWGSYATFHLWNQS”: the protein production entry is recorded as “failed”.

Values taken from a protein production outcome set (Wang et al. 2014).
